Experimental data published in publication PMC6198510 (2018).

Tests used:
[1] = target: JK18; test: FP
[2] = target: JK16; test: FP
[3] = target: JK18; test: FP; direct titration
[4] = target: JK16; test: FP; direct titration

B1: c-Jun N-terminal kinase 3 (enzyme)
chain: MSLHFLYYCSEPTLDVKIAFCQGFDKQVDVSYIAKHYNMSKSKVDNQFYSVEVGDSTFTVLKRYQNLKPIGSGAQGIVCAAYDAVLDRNVAIKKLSRPFQNQTHAKRAYRELVLMKCVNHKNIISLLNVFTPQKTLEEFQDVYLVMELMDANLCQVIQMELDHERMSYLLYQMLCGIKHLHSAGIIHRDLKPSNIVVKSDCTLKILDFGLARTAGTSFMMTPYVVTRYYRAPEVILGMGYKENVDIWSVGCIMGEMVRHKILFPGRDYIDQWNKVIEQLGTPCPEFMKKLQPTVRNYVENRPKYAGLTFPKLFPDSLFPADSEHNKLKASQARDLLSKMLVIDPAKRISVDDALQHPYINVWYDPAEVEAPPPQIYDKQLDEREHTIEEWKELIYKEVMNSEEKTKNGVVKGQPSPSGAAVNSSESLPPSSSVNDISSMSTDQTLASDTDSSLEASAGPLGCCR
[1]
  Kd: 4.1 µM
[2]
  Kd: 6.7 µM
[3]
  Kd: 4.1 µM
[4]
  Kd: 6.7 µM
